Values joined by “and” are separate entries in the source; they are usually repeats but may differ in a detail not shown here. Equal entries are not always repeated.
Target: purified EV71 virus-like particles (purified antigen solution of Example 5) (EV71 (enterovirus 71), C4a subtype) (UniProt B9VUU3)
Assay: indirect ELISA, VLP coated 1 ug/ml, control serum

In the case of Negative serum, the OD450nm was 0.049 OD and 0.051 OD.

Source: US20160166675A1
